Assay: soluble on expression in E. coli; label from the status in PepcDB or PDB records

In the case of “MGSDKIHHHHHHMSSRAFSTVAVTDAFFTLVAPVAKNSARIVIIVNSVSTGKNHPQMVALQQTVQQLGYAHVQLLDVLTDDLAALNTATVIILNGGYEFLLLKNLRETHVLERLRTLALAGKPIYGISAGAILLGPDLDLYVYLYPEDNTEQLASTTAINATTIRIYPHYDVHCEVKPQLPQLITDWEHKTGVTVKRLTNNQGLLVHGSQIQMIDSDS”, the “soluble on expression in E. coli” value is reported as “not soluble”.
In the case of “MNDFNTAFANIDEKAIPNDEKGAANGVATLNSSGKLAQMPSASDVGALPITGGEMQGALKLKANQYGGSGPADEKYALDCQNSNIVNVNRILTADPAGSASEGWGFQREDDPDAYDVIWASNGTLYFTPGFKYNTPPYPANQRVLATTDNIALTNYLRQEYNKLKESEGTPTLNDIINGFGFCYNDSSNGAGLDGTYLTVSGMLDNKYRLQLLGQYNGSNWLAYRTRNGDEQSWNPWHKVLTDNINAAISARHQYTSSSYPQIYGNGILQLGGDSRNEYGVVLRSNGTDEANAFRPSVNAGTTGHLYLGVANQKWRAVFAQNGTIQTSDRNAKHDITDLDPEKITAFIMGLKPSSYVFNDADSGRTHWGLISQDIEELFPQLGMTSMDFAGFIKSPKTEDYYEDVPETVTDEETGEEKTVTRKELKTRTVEGEYIYSLRYDEFLEHHHHHH”, the “soluble on expression in E. coli” value is reported as “soluble”.
For “MGFLPDSWHFYIETLLVALLAYVVMRNRSKRQQEKLSKKLTERQKDELIADWTPEPLVPETPQDHPVLNPKYADGKMTKDVSIDGEKYLNMASTNFLSFIGVKRIEDRAKQTIFKYGVGSCGPRGFYGTVDVHLDLEKELAKFMGCEEAVLYSYGFATVSSAIPAYAKKGDVIFVDEGVNFAIQKGLQASRSRVEYFKHNDMEHLERLLLEQEQRDKKDPKKAKSVRRFIVVEGLYVNYADLCPLPKIIEFKWRFKVRVFIDESWSFGVIGKTGRGVTEHFNVPMEDVDMVMASLENALASTGGFCVGRSYVVGHQRLSGLGYCFSASLPPLLATAASEAISIIDEEPSRVQKVTEMAINGQKKLQDALSGSKFSLQGCPESPMKHIYYNGEDEEKQLDTFVETVFTKNHLLLTRARYLDKDELFKIRPSIRVMFQHDLTEEEIQRAVDAIRVVAHKF”, the “soluble on expression in E. coli” value was “not soluble”.
In the case of “MDRVTRYPILGIPQAHRGTGLVLDGDTSYTYHLVCMGPEASGWGQDEPQTWPTDHRAQQGVQRQGVSYSVHAYTGQPSPRGLHSENREDEGWQVYRLGARDAHQGRPTWALRPEDGEDKEMKTYRLDAGDADPRRLCDLERERWAVIQGQAVRKSSTVATLQGTPDHGDPRTPGPPRSTPLEENVVDREQIDFLAARQQFLSLEQANKGAPHSSPARGTPAGTTPGASQAPKAFNKPHLANGHVVPIKPQVKGVVREENKVRAVPTWASVQVVDDPGSLASVESPGTPKETPIEREIRLAQEREADLREQRGLRQATDHQELVEIPTRPLLTKLSLITAPRRERGRPSLYVQRDIVQETQREEDHRREGLHVGRASTPDWVSEGPQPGLRRALSSDSILSPAPDARAADPAPEVRKVNRIPPDAYQPYLSPGTPQLEFSAFGAFGKPSSLSTAEAKAATSPKATMSPRHLSESSGKPLSTKQEASKPPRGCPQANRGVVRWEYFRLRPLRFRAPDEPQQAQVPHVWGWEVAGAPALRLQKSQSSDLLERERESVLRREQEVAEERRNALFPEVFSPTPDENSDQNSRSSSQASGITGSYSVSESPFFSPIHLHSNVAWTVEDPVDSAPPGQRKKEQWYAGINPSDGINSEVLEAIRVTRHKNAMAERWESRIYASEEDD”, the “soluble on expression in E. coli” value is reported as “not soluble”.
For “MSRDPTLILDESNLVIGKDGRVHYTFTTEDDNPKVRLASKCLGTAHFNQLMIERGDQATSYVAPVVVEGTGNPTGLFKDLKEISLELTDTANSQLWSKIKLTNRGMLQEYYDGKIKTEIVNSARGVATRISEDTDKKLALINDTIDGIRREYRDADRKLSASYQAGIEGLKATMANDKIGLQAEIKASAQGLSQKYDDELRKLSAKITTTSSGTTEAYESKLAGLRAEFTRSNQGTRTELESQISGLRAVQQSTASQISQEIRDREGAVSRVQQSLESYQRRMQDAEENYSSLTHTVRGLQSDVGSPTGKIQSRLTQLAGQIEQRVTRDGVMSIISGAGDSIKLAIQKAGGINAKMSGNEIISAINLNSYGVTIAGKHIALDGNTTVNGTFTTKIAEAIKIRADQIIAGTIDAARIRVINLNASSIVGLDANFIKAKIGYAITDLLEGKVIKARNGAMLIDLNTAKMDFNSDATINFNSKNNALVRKDGTHTAFVHFSNATPKGYTGSALYASIGITSSGDGVNSASSGRFAGLRSFRYATGYNHTAAVDQTEIYGDNVLVVDDFNITRGFKFRPDKMQKMLDMNDLYAAVVALGRCWGHLANVGWNTAHSNFTSAVNRELNNYITKI”, the “soluble on expression in E. coli” value was “not soluble”.
In the case of “MAKVSLEKDRIKFLLVEGVHQSAVDNLRAAGYSNIEYHKGALDAESLKASIRDAHFIGIRSRTHLSEDVFAAAEKLVAVGCFCIGTNQVDLKAATKRGVPVFNAPFSNTRSVAEMVLGELLLMFRGIPSANAKAHRGEWNKLAVGSFEARGKKLGIIGYGHIGTQLGILAESIGMKVFFYDIENKLSLGNAQQVRQLSDLLNMSDVVSLHVPENHTTKNMIGAEQLAQMKPGALLINASRGTVVDIPALCDALSSNHLSGAAIDVFPEEPATNKDPFNSPLCEFDNVLLTPHIGGSTQEAQENIGDEVAGKLAKYSDNGSTLSAVNFPEVSLPAHGDNTRRLLHIHENRPGILTSINTIFAEQNVNIAAQYLQTSADIGYVVIDVETDDADNAEKALQAMKAIPGTIRARLLY”, the “soluble on expression in E. coli” value is reported as “not soluble”.
For “MGHHHHHHSHMIKLENELLLVEMKEAGAELTRIFHKDTKLEYLWNADSTFWGRHSPVLFPTVGRLVEDTYFVDGNPYHLGQHGFARDRDFKVVEHTENAVRFELDADEDSLTIYPYKFKLSIIYTIEKDSVAVSYEVENTDNKRIYFSIGAHPAFNLPLADGTTFEDYYLDFGTEENLETLCLEGPYRSGKIEKVVNEPARYLPLSYDLFKNDALIFEGLKQKEITIKSDKTPHFVKVSFPEFPFVGVWTAKAGTPFLCIEPWYGIADGAGKSVELRDKAGIEHLEPEAVFASEYKITIG”, the “soluble on expression in E. coli” value was “soluble”.
With “MKAPELLLPAGGLERMRAAYDYGADAVYAGSPRYSLRARNNEFAKLDVLEQGIKEAHERNKKFFLTVNTLPHNSKLKTFVADMEPLIAMKPDALIMADPGLIMTVREKWPEMPIHLSVQANTTNYWGVKFWQNIGVERIILSRELSMEEIAEIRQECPDIELEVFIHGALCIAYSGRCLLSGYFNHRDPNQGTCTNSCRWDYKVHNATESDAGDAQLLQGFNFEKAQEEANQNFEGINGQKRHPYADKVFLIEESNRPGEMMPIMEDEHGTYIMNSKDLRGIEVVEKLAKIGVDSLKVEGRTKSLYYVARVAQSYRKAIDDAVAGRPFDYSLLSELEGLANRGYTSGFLERHQTQDYQNYLTGHSTAKQSQYVGHVTEIDENGWATVEVKNRFAVSDSLEIIHPSGNQTIKLEQMTRKGQPVDVAPGNGIQVKIPNMQGKEKALIARVLNP” the “soluble on expression in E. coli” value was “not soluble”.
For “MGCDFAIAKDFLLFFLTKPISMKLSVIIPIYNEIQTIEKILKKITTVMPEIPKEIVMVDDGSKDGTREWLVDTFGDPEQHPVLANVNLAGKFQCFPLDQSAETNGDRQGNSFVMPKEWEVKVIFHRQNQGKGGALHTAFAAATGDVLIIQDADLEYDPEDWGPMWKLIDGGWADVVYGSRFYGNPHRVLYFHHYLGNKLITSLIDLVCNINLTDIEVCYKMFRREVLEDLRLTCNDFGFEVEFTMKVTRSPKRWRIYEVGVAYYGRTFAEGKKINWRDGVKALGYIAKFWLTNALEHHHHHH”, the “soluble on expression in E. coli” value was “not soluble”.
In the case of “MYSYKHPIYCANPVLSGQKIIELPPMNVPFSTYYEVYVTVQDHIPISSFVSMDLIMKNDNYSGGNFQVYSKDVSGILASHSNHFSPVTYSMQLQYEYKNWAEEDTQVRVYSDRLPPYWLPYCD”, the “soluble on expression in E. coli” value is reported as “not soluble”.
For “MARRISSQGKVTISVDEYSSNPTQAFTHYNINQSRFQPPHVHMVEPLPYDAPKSVGHTRFVCVSDTHSRTDGIQMPFGDVLLHTGDFTELGLPSEVKKFNDWLGGLPYEYKVVIAGNHELTFDKDFMAELIKQDYYRFPSVSKLRSEDFDDVQSLLTNCVYLQDSEVTIKGFRIYGAPWTPWFNGWGFNLPRGQSLLDKWNQIPEDVDILMTHGPPLGFRDWVPKELQRVGCVELLNTVQKRVRPKLHAYGGIHEGYGIMTDGYTTFINSSTCTVSFQPTNPPIIFDLPNPGNS”, the “soluble on expression in E. coli” value was “not soluble”.
With “MINLTNLASSLARVALSDSTKPTIDRAMNVVSHIAGKVALQVNSSLLEQKGRLNERQQKGLEVILDALLGKEPVTHVETHEGGGRFNLARAAFDVASVVWERDQSMRNVMSFLGINDSKGNLLFSLGKTLADAMARPEPENGKHNSEANYAFFSSNLKLNKLMNDIADQVINEIRQQNTDRVRRPTPGPSWRPESTQQQARPQTPPSARPQANSAPPPPKAQPDAGAQRPSTERPPKTTPTGASAKVDDSAPAKPPVKQLYEHLGLSDMTADLSAVKKAYKKAALKYHPDKNAGNVAEANERFKKISNAFRILSDPELRTKYDNGVIDENG” the “soluble on expression in E. coli” value was “not soluble”.
In the case of “MSLSYEYFPGFYDRLMDSELYDEWLEFSADFIGDAPKKVLDLACGTAEFALRLSFSGHQVTGVDLSKEMVAVAKEKVAAAEIDLPIIEQDMSKLALKQTFDVVTCFCDSLNYLETEQALEATIQAVSAHLEPNGLFLFDVHSVFKIEQGFKDYSYGDSDEEISTIWNSFPGEHPHSIEHELTFYILGEDDTYNRVDELHKERTYPIATYENLLKKFGFTKIDIYADFSHEKPNKTSERIFFAARKEGHHHHHH”, the “soluble on expression in E. coli” value is reported as “soluble”.
For “LESALIEVNGKQQLRYEFLNDMLTQQNFQTNPIYAILHESIYCQDFASNWSAHRVRQTRPEFNYEPDQPFYFTGEMVFPWMFDQYVNLKPLKDAAEILAAKEDWAALYDQTQLAQNKVPVSCAVYADDMFVEMDISRETLALIPNSKAWITNEYEHNGLRADGERILDRLIAMGKQTAATLK”, the “soluble on expression in E. coli” value was “not soluble”.
For “ELRAKERKIIRDKEDGLNPQLADRMTLNELYDRFIEQKYDLKPSTKVNYLYMYNHFVRPTFGKRLIGKIKYSDVKKFYYRIILDEEMKANTLDSIHTQLHPAFQMAVRDGLLRQNPTDGLMAEIKKSHIWEDNPRHALTIPQQKAFMDYLKAHREYQGWVPIITVLLGTGMRIGECIGLRWDDLDFEKRIVSVNHTFIYRPDENRKSVKHISTPKTISGRRTIPMIDEVFNAFLDEYEIQKCIGFSSEEIDGYSNFVFVTATGTVYLPNAVNRAIERARVAYNKDEIEIAEKEDREPLIIPHF”, the “soluble on expression in E. coli” value was “not soluble”.
With “MLGENHALIYEFPDFADHIRHLKKNNTIFATMAQRYHELDHKIRALELTKVPTDDEHFVALKLERLHLKDKLYQYLVHDAI” the “soluble on expression in E. coli” value was “soluble”.
For “GPGSMMNLAPDTITIGAQRNTELLLLEYLRSTNPHIHALWQRHPNKDNDASSSSAASSPSKDTRGASGSDVGDANASSSSAASALRESFDYTEPRLYRAAHVHFLMENLSVAPQGFSSLYPSRPWIVYWALQAADVLNSMESEVLHRTPPSAIVAFLHSCLSVDHTCQAEVNNRLAAAATSARGAPEGKDPHVTGTPLESSTTSVTLERDSADATSATLMPPVEDAAEVAEGPSRPVMGFAGGATHQEPHIASSYAACCALAMLSWYGDGAPLRQLPRAAIKRWLLTLRNEDGSFRVHGGGESDIRASYCAAVITTLLGLDDPTTFDGEAGRCEFVDDVRDVPVLTLQTARFVAACQTHEGGFTCSPTASEAHGAYTQCGLAALLLMKQPHMVHQASLRRWLAARQLNYEGGFNGRTNKLVDSCYSHWIGASHVLLRTVEAYTKCFTEVPTTHSRNGDGTGGCEDGYREDVDCTPSARCLRAREVVLLDHAQLLDAKMIHASADDAWDRAESAHLTRLGVVDQFLGADDAVLRSAEEKRTAVTALYERLLESRLAAVRSCDGNGDAAAGDVQGSLEAWRARQAFLYADVGDFYFNQRKLQDYVLRCCQDSEIGGLMDKPQTAHDGYHTCYSLSGLSAAQNLQYRTHVTAADAAYPSTYLERAFARSYLPGRESGSTSGNEEGSCGVVLGLPNTSAAAESMLLRTTSPIFNIHQSRVLSALRAWSVKAFV”, the “soluble on expression in E. coli” value was “not soluble”.
